Each block holds one molecule with its values, some of them ahead of it.
Legend:
Assay in all cases: SEC; Superdex 200 10/300 GL column, PBS (pH 7.4), protein approximate 3–4 mg/ml; elution volume compared with mNeptune (monomer standard) and eqFP670 (dimer standard)
[1] = target: mNeptune681_Q159Y
[2] = target: eqFP670
[3] = target: mNeptune681_Q159F
[4] = target: T1, mNeptune681_Q159C; conditions: both partners purified
T1 chain: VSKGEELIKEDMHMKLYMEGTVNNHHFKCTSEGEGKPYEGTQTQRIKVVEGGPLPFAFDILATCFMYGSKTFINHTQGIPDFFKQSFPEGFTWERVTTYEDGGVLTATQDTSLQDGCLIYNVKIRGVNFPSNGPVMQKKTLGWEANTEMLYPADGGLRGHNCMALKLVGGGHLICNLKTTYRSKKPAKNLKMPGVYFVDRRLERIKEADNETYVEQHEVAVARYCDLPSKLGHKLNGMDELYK

[5] = target: T2, mNeptune681_Q159T; conditions: both partners purified
T2 chain: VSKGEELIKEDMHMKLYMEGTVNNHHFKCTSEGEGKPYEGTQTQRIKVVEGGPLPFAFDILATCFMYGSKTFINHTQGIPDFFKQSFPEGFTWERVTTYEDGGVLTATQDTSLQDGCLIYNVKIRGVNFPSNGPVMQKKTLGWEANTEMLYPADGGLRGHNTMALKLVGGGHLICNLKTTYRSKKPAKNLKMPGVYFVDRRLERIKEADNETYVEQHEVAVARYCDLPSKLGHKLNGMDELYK

[6] = target: T3, mNeptune681_Q159I; conditions: both partners purified
T3 chain: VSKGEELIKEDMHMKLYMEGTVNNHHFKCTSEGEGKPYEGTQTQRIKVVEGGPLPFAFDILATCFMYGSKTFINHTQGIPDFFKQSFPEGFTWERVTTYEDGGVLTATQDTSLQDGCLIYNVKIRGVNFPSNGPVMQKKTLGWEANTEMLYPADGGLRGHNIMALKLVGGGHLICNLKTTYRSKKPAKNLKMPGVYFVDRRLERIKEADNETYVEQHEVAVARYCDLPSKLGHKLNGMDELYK

[7] = target: T4, mNeptune681_Q159W; conditions: both partners purified
T4 chain: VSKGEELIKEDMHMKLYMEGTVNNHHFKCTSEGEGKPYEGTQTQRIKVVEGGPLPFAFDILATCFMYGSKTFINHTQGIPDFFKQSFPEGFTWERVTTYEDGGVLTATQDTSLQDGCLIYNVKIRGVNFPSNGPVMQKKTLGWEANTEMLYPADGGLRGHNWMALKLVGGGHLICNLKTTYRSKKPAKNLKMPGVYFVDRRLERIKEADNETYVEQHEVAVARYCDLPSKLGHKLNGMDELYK

[8] = target: T5, mNeptune681_Q159L; conditions: both partners purified
T5 chain: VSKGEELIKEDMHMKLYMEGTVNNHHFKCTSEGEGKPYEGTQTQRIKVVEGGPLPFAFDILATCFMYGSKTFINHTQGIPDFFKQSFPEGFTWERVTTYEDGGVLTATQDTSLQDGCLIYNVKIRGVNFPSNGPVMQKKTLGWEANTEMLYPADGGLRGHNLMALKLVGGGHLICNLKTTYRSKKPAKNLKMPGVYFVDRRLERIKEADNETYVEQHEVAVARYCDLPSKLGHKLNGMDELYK

[9] = target: T6, mNeptune681_Q159M; conditions: both partners purified
T6 chain: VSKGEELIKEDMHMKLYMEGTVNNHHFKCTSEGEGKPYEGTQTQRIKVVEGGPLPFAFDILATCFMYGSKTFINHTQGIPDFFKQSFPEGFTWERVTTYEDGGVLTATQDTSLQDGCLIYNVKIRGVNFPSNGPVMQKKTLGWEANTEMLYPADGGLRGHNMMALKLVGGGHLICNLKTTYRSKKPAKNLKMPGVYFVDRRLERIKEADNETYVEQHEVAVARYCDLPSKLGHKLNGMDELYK

[10] = target: T7, mNeptune681_Q159V; conditions: both partners purified
T7 chain: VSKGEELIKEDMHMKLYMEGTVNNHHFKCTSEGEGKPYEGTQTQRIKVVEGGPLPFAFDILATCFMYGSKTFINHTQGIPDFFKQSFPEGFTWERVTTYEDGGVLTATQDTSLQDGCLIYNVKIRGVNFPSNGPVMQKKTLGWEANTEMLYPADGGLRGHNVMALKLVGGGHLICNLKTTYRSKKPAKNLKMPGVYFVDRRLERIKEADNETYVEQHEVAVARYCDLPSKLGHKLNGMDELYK

- stoichiometry N [1]: 2
Molecule: mNeptune681_Q159Y

- stoichiometry N [2]: 2
Molecule: eqFP670

- stoichiometry N [3]: 2
Molecule: mNeptune681_Q159F

- stoichiometry N [4]: 2
B1: mNeptune681_Q159C (other)
chain: VSKGEELIKEDMHMKLYMEGTVNNHHFKCTSEGEGKPYEGTQTQRIKVVEGGPLPFAFDILATCFMYGSKTFINHTQGIPDFFKQSFPEGFTWERVTTYEDGGVLTATQDTSLQDGCLIYNVKIRGVNFPSNGPVMQKKTLGWEANTEMLYPADGGLRGHNCMALKLVGGGHLICNLKTTYRSKKPAKNLKMPGVYFVDRRLERIKEADNETYVEQHEVAVARYCDLPSKLGHKLNGMDELYK
modifications: autocatalytic Met-Tyr-Gly chromophore / autocatalytic Met-Tyr-Gly chromophore

- stoichiometry N [5]: 2
B2: mNeptune681_Q159T (other)
chain: VSKGEELIKEDMHMKLYMEGTVNNHHFKCTSEGEGKPYEGTQTQRIKVVEGGPLPFAFDILATCFMYGSKTFINHTQGIPDFFKQSFPEGFTWERVTTYEDGGVLTATQDTSLQDGCLIYNVKIRGVNFPSNGPVMQKKTLGWEANTEMLYPADGGLRGHNTMALKLVGGGHLICNLKTTYRSKKPAKNLKMPGVYFVDRRLERIKEADNETYVEQHEVAVARYCDLPSKLGHKLNGMDELYK
modifications: autocatalytic Met-Tyr-Gly chromophore / autocatalytic Met-Tyr-Gly chromophore

- stoichiometry N [6]: 2
B3: mNeptune681_Q159I (other)
chain: VSKGEELIKEDMHMKLYMEGTVNNHHFKCTSEGEGKPYEGTQTQRIKVVEGGPLPFAFDILATCFMYGSKTFINHTQGIPDFFKQSFPEGFTWERVTTYEDGGVLTATQDTSLQDGCLIYNVKIRGVNFPSNGPVMQKKTLGWEANTEMLYPADGGLRGHNIMALKLVGGGHLICNLKTTYRSKKPAKNLKMPGVYFVDRRLERIKEADNETYVEQHEVAVARYCDLPSKLGHKLNGMDELYK
modifications: autocatalytic Met-Tyr-Gly chromophore / autocatalytic Met-Tyr-Gly chromophore

- stoichiometry N [7]: 2
B4: mNeptune681_Q159W (other)
chain: VSKGEELIKEDMHMKLYMEGTVNNHHFKCTSEGEGKPYEGTQTQRIKVVEGGPLPFAFDILATCFMYGSKTFINHTQGIPDFFKQSFPEGFTWERVTTYEDGGVLTATQDTSLQDGCLIYNVKIRGVNFPSNGPVMQKKTLGWEANTEMLYPADGGLRGHNWMALKLVGGGHLICNLKTTYRSKKPAKNLKMPGVYFVDRRLERIKEADNETYVEQHEVAVARYCDLPSKLGHKLNGMDELYK
modifications: autocatalytic Met-Tyr-Gly chromophore / autocatalytic Met-Tyr-Gly chromophore

- stoichiometry N [8]: 2
B5: mNeptune681_Q159L (other)
chain: VSKGEELIKEDMHMKLYMEGTVNNHHFKCTSEGEGKPYEGTQTQRIKVVEGGPLPFAFDILATCFMYGSKTFINHTQGIPDFFKQSFPEGFTWERVTTYEDGGVLTATQDTSLQDGCLIYNVKIRGVNFPSNGPVMQKKTLGWEANTEMLYPADGGLRGHNLMALKLVGGGHLICNLKTTYRSKKPAKNLKMPGVYFVDRRLERIKEADNETYVEQHEVAVARYCDLPSKLGHKLNGMDELYK
modifications: autocatalytic Met-Tyr-Gly chromophore / autocatalytic Met-Tyr-Gly chromophore

- stoichiometry N [9]: 2
B6: mNeptune681_Q159M (other)
chain: VSKGEELIKEDMHMKLYMEGTVNNHHFKCTSEGEGKPYEGTQTQRIKVVEGGPLPFAFDILATCFMYGSKTFINHTQGIPDFFKQSFPEGFTWERVTTYEDGGVLTATQDTSLQDGCLIYNVKIRGVNFPSNGPVMQKKTLGWEANTEMLYPADGGLRGHNMMALKLVGGGHLICNLKTTYRSKKPAKNLKMPGVYFVDRRLERIKEADNETYVEQHEVAVARYCDLPSKLGHKLNGMDELYK
modifications: autocatalytic Met-Tyr-Gly chromophore / autocatalytic Met-Tyr-Gly chromophore

- stoichiometry N [10]: 2
B7: mNeptune681_Q159V (other)
chain: VSKGEELIKEDMHMKLYMEGTVNNHHFKCTSEGEGKPYEGTQTQRIKVVEGGPLPFAFDILATCFMYGSKTFINHTQGIPDFFKQSFPEGFTWERVTTYEDGGVLTATQDTSLQDGCLIYNVKIRGVNFPSNGPVMQKKTLGWEANTEMLYPADGGLRGHNVMALKLVGGGHLICNLKTTYRSKKPAKNLKMPGVYFVDRRLERIKEADNETYVEQHEVAVARYCDLPSKLGHKLNGMDELYK
modifications: autocatalytic Met-Tyr-Gly chromophore / autocatalytic Met-Tyr-Gly chromophore

— publication PMC4847776, “Mutagenesis of mNeptune Red-Shifts Emission Spectrum to 681-685 nm” (PLoS ONE, 2016)
